Laboratory results from US20240065978A1, “FORMULATIONS OF GLUCAGON-LIKE-PEPTIDE-2 (GLP-2) ANALOGUES” (Zealand Pharma A/S, priority 2018, published 2024).

Tests used:
[1] = in vivo; cited from earlier work
[2] = covalently linked oligomers by size exclusion HPLC (peak area %); assay type: physicochemical; conditions: for Covalently linked oligomers: 24 months at 2-8° C., 230 mM mannitol, 15 mM histidine, pH 7
Experimental: As shown in the examples, this amount of covalently bonded oligomers can be determined using size exclusion chromatography and determining the area under the peaks for monomeric GLP-2 analogue and oligomers respectively. This can be done using a Dionex Ultimate3000 HPLC system, giving a linear gradient, at a flow rate of 0.5 mL/min was used for the analysis. The mobile phase consisted of 0.1% TFA in 45% acetonitrile and 55% Milli-Q water. A wavelength of 215 nm was used for detection. This means that the formulations of the present invention generally contain the GLP-2 analogue at a concentration of about 2 mg/mL to about 30 mg/mL, more preferably at a concentration of about 15 mg/mL to about 25 mg/mL, and most preferably at a concentration of about 20 mg/mL. In some aspects of the present invention, it is preferred that the concentration of the GLP-2 analogue is selected so that the formulation contains 10% or less, more preferably 5% or less, more preferably 4% or less, more preferably 3% or less, and more preferably 2% or less of the GLP-2 analogue in the form of covalently bonded oligomeric products, preferably after 18 months storage. By way of illustration, the amount of covalently bonded oligomeric product may be in the range of between 2% to 5%, more preferably in the range of between 2% to 4%, and most preferably in the range of between 2% to 3%.
For detection of covalently linked oligomers, a Dionex Ultimate3000 HPLC system, giving a linear gradient, at a flow rate of 0.5 mL/min was used for the analysis. The mobile phase consisted of 0.1% TFA in 45% acetonitrile and 55% Milli-Q water. A wavelength of 215 nm was used for detection. The injection amount was 4 μg of peptide. The column used for the separation of the covalently formed peptides was a TSKgel SuperSW2000 (TSK BioScience) with a 4 μm particle size and dimensions of 300*4.6 mm. The overall runtime was 25 minutes. For chemical stability evaluation of the peptide monomer a C18 column with an acidic mobile phase and an acetonitrile gradient was used.
Stock solutions of mannitol (700 mM), L-histidine (200 mM) and ZP1848 peptide (acetate salt; 60 mg/mL) in water (Milli-Q) were prepared. Mannitol and histidine solutions were mixed in amounts appropriate to give 230 mM mannitol and 15 mM histidine. Peptide stock solution was added to a final concentration of 0.2, 2 and 20 mg/mL, respectively. Water was added up to 90% of final volume. If necessary, pH was adjusted to pH 7 using 1 M acetic acid/0.5 M L-arginine. Water was added up to the final volume.
The oligomers of ZP1848-acetate are well separated from the ZP1848-acetate monomer and are all integrated as one peak. The area percentage of the peaks was used to quantify the amount of oligomers, in particular covalently linked dimers and trimers. […]
(§1) Stock solutions of mannitol (700 mM), histidine (200 mM) and ZP1848 peptide solution (acetate salt; approx. 50 mg/mL) in Milli-Q water were prepared. Final concentration of peptide was 20 mg/mL, mannitol 230 mM, histidine 15 mM. Peptide stock solution was added to give the desired final peptide content. Water was added up to 90% of final volume. If necessary, pH was then adjusted to the desired formulation pH using 1 M acetic acid/0.5 M L-arginine. Water was added up to the final volume. Each formulation was filled in vials. Sample containers were visually inspected for clarity and viscosity and analysed for covalently linked oligomers by SEC, and peptide monomer stability by HPLC.

[3] = visual inspection for clarity and viscosity; assay type: physicochemical; conditions: 20 mg/mL; for Visual inspection Clear and non-viscous?: mannitol 230 mM, 24 hours at room temperature
Experimental: Stock solutions of mannitol (700 mM), phosphate buffer (200 mM) and ZP1848-acetate peptide (60.2 mg/mL) in water (Milli-Q) were prepared. Water was added up to 90% of final volume. If necessary, pH was then adjusted to the desired formulation pH using 1 M acetic acid/0.5 M L-arginine. Water was added up to the final volume. Sample containers were visually inspected for clarity and viscosity after 24 hours at room temperature.
Vials were visually inspected for clarity and viscosity. The viscosity was measured using a microVISC™ viscosimeter. The hydrodynamic radius was measured using a Wyatt DynaPro II Dynamic Light Scattering (DLS) Platereader. The sample size loaded on the plates was 170 μl. […]
as §1
Stock solutions of mannitol (700 mM), histidine (200 mM), and ZP1848 peptide solution (acetate salt; approx. 50 mg/mL) in Milli-Q water were prepared. Final concentration of peptide was 20 and 2 mg/mL, mannitol 230 mM, and histidine 15 mM. Water was added up to 90% of final volume. If necessary, pH was then adjusted to the desired formulation pH (7.0) using 1 M acetic acid/0.5 M L-arginine. Water was added up to the final volume. Each formulation was filled in vials. Sample containers were visually inspected for clarity and viscosity and analysed for peptide monomer stability by HPLC.

[4] = viscosity measured with microVISC viscosimeter; assay type: physicochemical; conditions: 20 mg/ml ZP1848-acetate, pH 7, acetate 6-15% (FIG. 2)
Experimental: In the examples below, the viscosity of the liquid formulations of the present invention is shown to be dependent on the total acetate concentration. Preferably, the formulations have a viscosity between 0.8 and 2.0 mPa/sec as measured at 25° C. Conveniently, the viscosity may be measured by using microVISC™. In parallel, the hydrodynamic radius may be measured using a Dynamic Light Scattering, DLS, Platereader (Wyatt DynaPro II). Samples were prepared having a drug substance (DS) of the GLP-2analogue containing 6% acetate and to mimic DS having 7.8-15% acetate, then acetate was added. Data from manufacturing formulations having varied the acetate concentration from 6.7-15% is shown below in FIG. 2. The effect of controlling the total acetate concentration is that the injectability of formulations of the present invention can be modulated, for example by reducing the total acetate concentration to provide a less viscous formulation that may be more easily injected.
Samples were prepared using a drug substance (DS) of the GLP-2 analogue ZP1848-acetate containing 6% acetate. […]
Vials were visually inspected for clarity and viscosity. The viscosity was measured using a microVISC™ viscosimeter. The hydrodynamic radius was measured using a Wyatt DynaPro II Dynamic Light Scattering (DLS) Platereader. […]

Compound: CC[C@H](C)[C@H](NC(=O)[C@H](Cc1ccccc1)NC(=O)[C@H](CC(=O)O)NC(=O)[C@H](CCCNC(=N)N)NC(=O)[C@H](C)NC(=O)[C@H](C)NC(=O)[C@H](CC(C)C)NC(=O)[C@H](CC(N)=O)NC(=O)[C@H](CC(=O)O)NC(=O)[C@H](CC(C)C)NC(=O)[C@@H](NC(=O)[C@@H](NC(=O)[C@H](CC(N)=O)NC(=O)[C@H](CCSC)NC(=O)[C@H](CCC(=O)O)NC(=O)[C@H](CC(=O)O)NC(=O)[C@H](CO)NC(=O)[C@H](Cc1ccccc1)NC(=O)[C@H](CO)NC(=O)CNC(=O)[C@H](CC(=O)O)NC(=O)CNC(=O)[C@@H](N)Cc1c[nH]cn1)[C@@H](C)O)[C@@H](C)CC)C(=O)N[C@@H](CC(N)=O)C(=O)N[C@@H](Cc1c[nH]c2ccccc12)C(=O)N[C@@H](CC(C)C)C(=O)N[C@H](C(=O)N[C@@H](CCC(N)=O)C(=O)N[C@H](C(=O)N[C@@H](CCCCN)C(=O)N[C@H](C(=O)N[C@H](C(=O)N[C@@H](CC(=O)O)C(=O)O)[C@@H](C)O)[C@@H](C)CC)[C@@H](C)O)[C@@H](C)CC [teduglutide]
- half-life [1]: about two

Compound: (H-HGEGTFSSELATILDALAARDFIAWLIATKITDKKKKKK-NH2), x(CH3COOH) (also: acetate salt) [ZP1848-acetate]
- Covalently linked oligomers ([2]; 0.2 mg/mL): 2.60%
- formation of covalent oligomers, increase per week ([2]; 2 mg/mL, 3 weeks at 40° C.): 0.27%
- formation of covalent oligomers ([2]; 2 mg/mL, after 3 weeks at 40° C.): 1.2%
- formation of covalent oligomers, increase per week ([2]; 20 mg/mL, 3 weeks at 40° C.): 0.21%
- Covalently linked oligomers ([2]; 20 mg/mL): 1.35%
- formation of covalent oligomers ([2]; 20 mg/mL, after 3 weeks at 40° C.): 0.9%
- concentration dependence for oligomer formation ([2]; long term storage at 2-8° C.): inversely dependent on increasing concentration of the GLP-2 analogue
- formation of covalent oligomers ([2]; sorbitol, 3 weeks at 40° C.): 1.1%
- Visual inspection ([3]; pH 6.5-7.5, 20-50 mM phosphate buffer, 24 hrs at room temperature): turbid and/or highly viscous
- viscosity as a function of acetate concentration [4]: increases in a non-linear manner at higher acetate concentration

Compound: H-HGEGTFSSELATILDALAARDFIAWLIATKITDKKKKKK-NH2 [ZP1848]
- Covalently linked oligomers ([2]; 2 mg/mL): 1.91%
- initial value of the amount of oligomer ([2]; initial, before storage): less than 0.1%
- Visual inspection Clear and non-viscous? ([3]; pH 6.5, phosphate 20 mM): No
- Visual inspection Clear and non-viscous? ([3]; pH 7.0, phosphate 20 mM): No
- Visual inspection Clear and non-viscous? ([3]; pH 7.0, phosphate 50 mM): No
- Visual inspection Clear and non-viscous? ([3]; pH 7.5, phosphate 20 mM): No
